B1: FUT8 (parent)
chain: YAHQPRTADEIPMEPGDIIGVAGN
B2: DLC1 (parent)
chain: AIQGISEKEKAEIEAKEACDWLRA

Variants of: B1
Experiment: protein stability index of a GFP-peptide fusion (GPS, HEK-293T) (PSI 1-6); higher = more stable
Conditions: c terminus: a fixed tail appended
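Also: lentivirally expressed fusions sorted by FACS into six bins by GFP to DsRed ratio, PSI derived from sequencing read proportions per bin multiplied by bin number.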

Protein stability index, by site and new letter:
V21: Y 3.82, N 4.28, G 4.29, E 4.62, S 4.05, T 4.69, L 4.03, W 3.03, I 3.93, R 3.47, H 4.15, M 3.68, Q 4.22, D 4.62, P 4.13, F 3.8

Variants of: B2
Experiment: as above
Conditions: c terminus: a fixed tail appended

Protein stability index, by site and new letter:
C19: V 4.77, R 4.45, F 4.47, S 4.6, Y 4.64, P 4.33, Q 4.77
G4: H 4.36, A 4.47, Y 3.73, C 4.32, Q 4.46, N 3.67, K 4.26
R23: H 4.75, A 4.67, N 5.1, I 4.68, M 4.45, V 4.31, G 4.42
E12: F 3.82, S 4.02, N 4.5
A24: V 4.58, G 4.78, K 4, Q 4.67, H 4.66, I 4.44, S 4.65, L 4.46
A15: V 4.53, W 3.65, R 4.18, G 3.97, Q 4.52, I 3.91
A1: L 4.21, V 4.18, M 4.09, G 4.58, H 4.21, Q 4.23
L22: G 4.98, H 5, Q 5.03, I 4.98
I13: Q 4.44, P 5.13, R 4.53, W 4.26, H 4.88
E7: G 4.22, L 3.06, F 3.44, Q 4.06
E14: S 3.93, T 4.34, D 4.58, Q 4.36, F 3.78, M 3.59
Q3: L 3.54, F 3.61, R 4.43, V 4.34, W 3.58, A 4.83, E 5.07
E17: I 4.12, H 4.18, C 3.92, S 4.17, V 3.65, F 3.55, W 3.27, D 4.18
W21: P 5, S 5.05, K 5.44, D 5.77, Y 4.68, E 5.01, I 4.62, R 5.4
K8: T 5.01, V 4.2, I 4.5, Y 3.69, N 3.88, M 4.49, P 4.72, L 3.85, H 4.4, R 4.43, C 4
E9: S 4.22, R 3.08, P 4.08, Y 3.48
I5: D 5.19, L 4.36, V 4.54, E 4.35, T 4.87
K16: D 5.1, I 4.16, V 4.17, Y 3.89, T 4.87
D20: T 4.12, E 4.27, K 4.05, W 3.98, P 3.56, R 3.19, I 3.35, G 3.56, L 3.68
S6: W 3.71, R 4.46, F 3.86, V 4.14
K10: M 4.67, A 4.67, H 4.38, N 4.71, W 3.73, R 4.04, C 4.54, I 3.8
A18: Y 4.33, M 4.57, I 4.14, E 5.02, N 4.42, Q 4.28, S 4.31, R 4.56
I2: V 4.19, P 4.96, D 4.99, T 5
A11: W 3.53, S 4.79, Y 4.16, D 5.18, F 3.64, R 4.23, H 4.34

— the supplement of paper PMC10567573
